Measurements from the supplement of paper PMC5998384.

Tests used:
HeLa Kyoto [1] = assay: solubility change mitosis vs G1/S (difference of NP-40 vs SDS log2 ratios) (log2 ratio difference); higher = more soluble in mitosis
HeLa Kyoto [2] = assay: solubility in G1/S (NP-40 vs SDS abundance) (log2 ratio); higher = more soluble; details: cell cycle stage: G1/S
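Throughout, for solubility change mitosis vs G1/S (difference of NP-40 vs SDS log2 ratios): synchronized HeLa Kyoto cells (double thymidine block for G1/S, nocodazole release for mitosis), protein amounts in NP-40 versus SDS lysates quantified by mass spectrometry, three biological replicates.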
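Throughout, for solubility in G1/S (NP-40 vs SDS abundance): HeLa Kyoto cells arrested at G1/S by double thymidine block, proteins quantified by TMT10plex mass spectrometry in mild NP-40 versus SDS extracts, three biological replicates.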

Row | Sequence | solubility change mitosis (log2) (HeLa Kyoto [1]) | solubility in G1/S (log2) (HeLa Kyoto [2])
1 | MMDSPFLELWQSKAVSIREQLGLGDRPNDSYCYNSAKNSTVLQGVTFGGIPTVLLIDVSCFLFLILVFSIIRRRFWDYGRIALVSEADSESRFQRLSSTSSSGQQDFENELGCCPWLTAIFRLHDDQILEWCGEDAIHYLSFQRHIIFLLVVVSFLSLCVILPVNLSGDLLDKDPYSFGRTTIANLQTDNDLLWLHTIFAVIYLFLTVGFMRHHTQSIKYKEENLVRRTLFITGLPRDARKETVESHFRDAYPTCEVVDVQLCYNVAKLIYLCKEKKKTEKSLTYYTNLQVKTGQRTLINPKPCGQFCCCEVLGCEWEDAISYYTRMKDRLLERITEEERHVQDQPLGMAFVTFQEKSMATYILKDFNACKCQSLQCKGEPQPSSHSRELYTSKWTVTFAADPEDICWKNLSIQGLRWWLQWLGINFTLFLGLFFLTTPSIILSTMDKFNVTKPIHALNNPIISQFFPTLLLWSFSALLPSIVYYSTLLESHWTKSGENQIMMTKVYIFLIFMVLILPSLGLTSLDFFFRWLFDKTSSEASIRLECVFLPDQGAFFVNYVIASAFIGNGMELLRLPGLILYTFRMIMAKTAADRRNVKQNQAFQYEFGAMYAWMLCVFTVIVAYSITCPIIAPFGLIYILLKHMVDRHNLYFVYLPAKLEKGIHFAAVNQALAAPILCLFWLYFFSFLRLGMKAPATLFTFLVLLLTILVCLAHTCFGCFKHLSPLNYKTEEPASDKGSEAEAHMPPPFTPYVPRILNGLASERTALSPQQQQQQTYGAIHNISGTIPGQCLAQSATGSVAAAPQEA [TMEM63A] | 0.0055 | -0.142
2 | MMFRSDRMWSCHWKWKPSPLLFLFALYIMCVPHSVWGCANCRVVLSNPSGTFTSPCYPNDYPNSQACMWTLRAPTGYIIQITFNDFDIEEAPNCIYDSLSLDNGESQTKFCGATAKGLSFNSSANEMHVSFSSDFSIQKKGFNASYIRVAVSLRNQKVILPQTSDAYQVSVAKSISIPELSAFTLCFEATKVGHEDSDWTAFSYSNASFTQLLSFGKAKSGYFLSISDSKCLLNNALPVKEKEDIFAESFEQLCLVWNNSLGSIGVNFKRNYETVPCDSTISKVIPGNGKLLLGSNQNEIVSLKGDIYNFRLWNFTMNAKILSNLSCNVKGNVVDWQNDFWNIPNLALKAESNLSCGSYLIPLPAAELASCADLGTLCQATVNSPSTTPPTVTTNMPVTNRIDKQRNDGIIYRISVVIQNILRHPEVKVQSKVAEWLNSTFQNWNYTVYVVNISFHLSAGEDKIKVKRSLEDEPRLVLWALLVYNATNNTNLEGKIIQQKLLKNNESLDEGLRLHTVNVRQLGHCLAMEEPKGYYWPSIQPSEYVLPCPDKPGFSASRICFYNATNPLVTYWGPVDISNCLKEANEVANQILNLTADGQNLTSANITNIVEQVKRIVNKEENIDITLGSTLMNIFSNILSSSDSDLLESSSEALKTIDELAFKIDLNSTSHVNITTRNLALSVSSLLPGTNAISNFSIGLPSNNESYFQMDFESGQVDPLASVILPPNLLENLSPEDSVLVRRAQFTFFNKTGLFQDVGPQRKTLVSYVMACSIGNITIQNLKDPVQIKIKHTRTQEVHHPICAFWDLNKNKSFGGWNTSGCVAHRDSDASETVCLCNHFTHFGVLMDLPRSASQLDARNTKVLTFISYIGCGISAIFSAATLLTYVAFEKLRRDYPSKILMNLSTALLFLNLLFLLDGWITSFNVDGLCIAVAVLLHFFLLATFTWMGLEAIHMYIALVKVFNTYIRRYILKFCIIGWGLPALVVSVVLASRNNNEVYGKESYGKEKGDEFCWIQDPVIFYVTCAGYFGVMFFLNIAMFIVVMVQICGRNGKRSNRTLREEVLRNLRSVVSLTFLLGMTWGFAFFAWGPLNIPFMYLFSIFNSLQGLFIFIFHCAMKENVQKQWRQHLCCGRFRLADNSDWSKTATNIIKKSSDNLGKSLSSSSIGSNSTYLTSKSKSSSTTYFKRNSHTDNVSYEHSFNKSGSLRQCFHGQVLVKTGPC [GPR126] | -0.0428 | -0.117
3 | MMMVRRGLLAWISRVVVLLVLLCCAISVLYMLACTPKGDEEQLALPRANSPTGKEGYQAVLQEWEEQHRNYVSSLKRQIAQLKEELQERSEQLRNGQYQASDAAGLGLDRSPPEKTQADLLAFLHSQVDKAEVNAGVKLATEYAAVPFDSFTLQKVYQLETGLTRHPEEKPVRKDKRDELVEAIESALETLNSPAENSPNHRPYTASDFIEGIYRTERDKGTLYELTFKGDHKHEFKRLILFRPFGPIMKVKNEKLNMANTLINVIVPLAKRVDKFRQFMQNFREMCIEQDGRVHLTVVYFGKEEINEVKGILENTSKAANFRNFTFIQLNGEFSRGKGLDVGARFWKGSNVLLFFCDVDIYFTSEFLNTCRLNTQPGKKVFYPVLFSQYNPGIIYGHHDAVPPLEQQLVIKKETGFWRDFGFGMTCQYRSDFINIGGFDLDIKGWGGEDVHLYRKYLHSNLIVVRTPVRGLFHLWHEKRCMDELTPEQYKMCMQSKAMNEASHGQLGMLVFRHEIEAHLRKQKQKTSSKKT [CSGALNACT1] | 0.00125 | 0.0522
4 | MMQGNTCHRMSFHPGRGCPRGRGGHGARPSAPSFRPQNLRLLHPQQPPVQYQYEPPSAPSTTFSNSPAPNFLPPRPDFVPFPPPMPPSAQGPLPPCPIRPPFPNHQMRHPFPVPPCFPPMPPPMPCPNNPPVPGAPPGQGTFPFMMPPPSMPHPPPPPVMPQQVNYQYPPGYSHHNFPPPSFNSFQNNPSSFLPSANNSSSPHFRHLPPYPLPKAPSERRSPERLKHYDDHRHRDHSHGRGERHRSLDRRERGRSPDRRRQDSRYRSDYDRGRTPSRHRSYERSRERERERHRHRDNRRSPSLERSYKKEYKRSGRSYGLSVVPEPAGCTPELPGEIIKNTDSWAPPLEIVNHRSPSREKKRARWEEEKDRWSDNQSSGKDKNYTSIKEKEPEETMPDKNEEEEEELLKPVWIRCTHSENYYSSDPMDQVGDSTVVGTSRLRDLYDKFEEELGSRQEKAKAARPPWEPPKTKLDEDLESSSESECESDEDSTCSSSSDSEVFDVIAEIKRKKAHPDRLHDELWYNDPGQMNDGPLCKCSAKARRTGIRHSIYPGEEAIKPCRPMTNNAGRLFHYRITVSPPTNFLTDRPTVIEYDDHEYIFEGFSMFAHAPLTNIPLCKVIRFNIDYTIHFIEEMMPENFCVKGLELFSLFLFRDILELYDWNLKGPLFEDSPPCCPRFHFMPRFVRFLPDGGKEVLSMHQILLYLLRCSKALVPEEEIANMLQWEELEWQKYAEECKGMIVTNPGTKPSSVRIDQLDREQFNPDVITFPIIVHFGIRPAQLSYAGDPQYQKLWKSYVKLRHLLANSPKVKQTDKQKLAQREEALQKIRQKNTMRREVTVELSSQGFWKTGIRSDVCQHAMMLPVLTHHIRYHQCLMHLDKLIGYTFQDRCLLQLAMTHPSHHLNFGMNPDHARNSLSNCGIRQPKYGDRKVHHMHMRKKGINTLINIMSRLGQDDPTPSRINHNERLEFLGDAVVEFLTSVHLYYLFPSLEEGGLATYRTAIVQNQHLAMLAKKLELDRFMLYAHGPDLCRESDLRHAMANCFEALIGAVYLEGSLEEAKQLFGRLLFNDPDLREVWLNYPLHPLQLQEPNTDRQLIETSPVLQKLTEFEEAIGVIFTHVRLLARAFTLRTVGFNHLTLGHNQRMEFLGDSIMQLVATEYLFIHFPDHHEGHLTLLRSSLVNNRTQAKVAEELGMQEYAITNDKTKRPVALRTKTLADLLESFIAALYIDKDLEYVHTFMNVCFFPRLKEFILNQDWNDPKSQLQQCCLTLRTEGKEPDIPLYKTLQTVGPSHARTYTVAVYFKGERIGCGKGPSIQQAEMGAAMDALEKYNFPQMAHQKRFIERKYRQELKEMRWEREHQEREPDETEDIKK [DROSHA] | 0.203 | -0.744
5 | MNALLEQKEQQERLREAAALGDIREVQKLVESGVDVNSQNEVNGWTCLHWACKRNHGQVVSYLLKSGADKEILTTKGEMPVQLTSRREIRKIMGVEEEDDDDDDDDNLPQLKKESELPFVPNYLANPAFPFIYTPTAEDSAQMQNGGPSTPPASPPADGSPPLLPPGEPPLLGTFPRDHTSLALVQNGDVSAPSAILRTPESTKPGPVCQPPVSQSRSLFSSVPSKPPMSLEPQNGTYAGPAPAFQPFFFTGAFPFNMQELVLKVRIQNPSLRENDFIEIELDRQELTYQELLRVCCCELGVNPDQVEKIRKLPNTLLRKDKDVARLQDFQELELVLMISENNFLFRNAASTLTERPCYNRRASKLTY [ANKRD40] | -0.00743 | -0.0058
6 | MNFEGLDPGLAEYAPAMHSALDPVLDAHLNPSLLQNVELDPEGVALEALPVQESVHIMEGVYSELHSVVAEVGVPVSVSHFDLHEEMLWVGSHGGHATSFFGPALERYSSFQVNGSDDIRQIQSLENGILFLTKNNLKYMARGGLIIFDYLLDENEDMHSLLLTDSSTLLVGGLQNHIIEIDLNTVQETQKYAVETPGVTIMRQTNRFFFCGHTSGKVSLRDLRTFKVEHEFDAFSGSLSDFDVHGNLLAACGFSSRLTGLACDRFLKVYDLRMMRAITPLQVHVDPAFLRFIPTYTSRLAIISQSGQCQFCEPTGLANPADIFHVNPVGPLLMTFDVSASKQALAFGDSEGCVHLWTDSPEPSFNPYSRETEFALPCLVDSLPPLDWSQDLLPLSLIPVPLTTDTLLSDWPAANSAPAPRRAPPVDAEILRTMKKVGFIGYAPNPRTRLRNQIPYRLKESDSEFDSFSQVTESPVGREEEPHLHMVSKKYRKVTIKYSKLGLEDFDFKHYNKTLFAGLEPHIPNAYCNCMIQVLYFLEPVRCLIQNHLCQKEFCLACELGFLFHMLDLSRGDPCQGNNFLRAFRTIPEASALGLILADSDEASGKGNLARLIQRWNRFILTQLHQDMQELEIPQAYRGAGGSSFCSSGDSVIGQLFSCEMENCSLCRCGSETVRASSTLLFTLSYPDGSKSDKTGKNYDFAQVLKRSICLDQNTQAWCDTCEKYQPTIQTRNIRHLPDILVINCEVNSSKEADFWRMQAEVAFKMAVKKHGGEISKNKEFALADWKELGSPEGVLVCPSIEELKNVWLPFSIRMKMTKNKGLDVCNWTDGDEMQWGPARAEEEHGVYVYDLMATVVHILDSRTGGSLVAHIKVGETYHQRKEGVTHQQWYLFNDFLIEPIDKHEAVQFDMNWKVPAILYYVKRNLNSRYNLNIKNPIEASVLLAEASLARKQRKTHTTFIPLMLNEMPQIGDLVGLDAEFVTLNEEEAELRSDGTKSTIKPSQMSVARITCVRGQGPNEGIPFIDDYISTQEQVVDYLTQYSGIKPGDLDAKISSKHLTTLKSTYLKLRFLIDIGVKFVGHGLQKDFRVINLMVPKDQVLDTVYLFHMPRKRMISLRFLAWYFLDLKIQGETHDSIEDARTALQLYRKYLELSKNGTEPESFHKVLKGLYEKGRKMDWKVPEPEGQTSPKNAAVFSSVLAL [PAN2] | 0.206 | -0.18
7 | MNGPADGEVDYKKKYRNLKRKLKFLIYEHECFQEELRKAQRKLLKVSRDKSFLLDRLLQYENVDEDSSDSDATASSDNSETEGTPKLSDTPAPKRKRSPPLGGAPSPSSLSLPPSTGFPLQASGVPSPYLSSLASSRYPPFPSDYLALQLPEPSPLRPKREKRPRLPRKLKMAVGPPDCPVGGPLTFPGRGSGAGVGTTLTPLPPPKMPPPTILSTVPRQMFSDAGSGDDALDGDDDLVIDIPE [INO80E] | 0.288 | 0.135
8 | MNGTRNWCTLVDVHPEDQAAGSVDILRLTLQGELTGDELEHIAQKAGRKTYAMVSSHSAGHSLASELVESHDGHEEIIKVYLKGRSGDKMIHEKNINQLKSEVQYIQEARNCLQKLREDISSKLDRNLGDSLHRQEIQVVLEKPNGFSQSPTALYSSPPEVDTCINEDVESLRKTVQDLLAKLQEAKRQHQSDCVAFEVTLSRYQREAEQSNVALQREEDRVEQKEAEVGELQRRLLGMETEHQALLAKVREGEVALEELRSNNADCQAEREKAATLEKEVAGLREKIHHLDDMLKSQQRKVRQMIEQLQNSKAVIQSKDATIQELKEKIAYLEAENLEMHDRMEHLIEKQISHGNFSTQARAKTENPGSIRISKPPSPKPMPVIRVVET [TUFT1] | 0.112 | 0.415
